Results as given in patent US6656716.

Legend:
[1] = molecular target: T1, KHS1 activation loop peptide # 4, KRKSFIGTPYWMAPE, aa 171-185 (not fully specified)
T1 chain: KRKSFIGTPYWMAPE

[2] = molecular target: T2, PAK5 activation loop peptide # 1, (C)RRKSLVGTPYWMAPE, aa 471-485
T2 chain: CRRKSLVGTPYWMAPE

[3] = molecular target: T3, PAK5 activation loop peptide # 2, (C)RRKSLVGTPYWMAPE, aa 471-485
T3 chain: CRRKSLVGTPYWMAPE

[4] = molecular target: T4, PAK5 activation loop peptide # 3, (C)RRKSLVGTPYWMAPE, aa 471-485 (not fully specified)
T4 chain: CRRKSLVGTPYWMAPE

[5] = molecular target: T5, STLK2 activation loop peptide # 5, KRNTFVGTPFWMAPE, aa 175-189 (not fully specified)
T5 chain: KRNTFVGTPFWMAPE

[6] = molecular target: T6, STLK4 activation loop peptide # 9, RNKVRKTFVGTPCWMAPE, aa 66-83 (not fully specified)
T6 chain: RNKVRKTFVGTPCWMAPE

[7] = molecular target: T7, SULU1 activation loop peptide # 6, PANSFVGTPYWMAPE, aa 174-188 (not fully specified)
T7 chain: PANSFVGTPYWMAPE

[8] = molecular target: T8, ZC1 activation loop peptide # 7, RRNTFIGTPYWMAPE, aa 184-198 (SEQ ID 125) (not fully specified)
T8 chain: RRNTFIGTPYWMAPE

[9] = molecular target: T9, ZC1 activation loop peptide # 8, RRNTFIGTPYWMAPE, aa 184-198 (SEQ ID 126)
T9 chain: RRNTFIGTPYWMAPE

B1: human PAK5 (protein)
chain: MFGKRKKRVEISAPSNFEHRVHTGFDQHEQKFTGLPRQWQSLIEESARRPKPLVDPACITSIQPGAPKTIVRGSKGAKDGALTLLLDEFENMSVTRSNSLRRDSPPPPARARQENGMPEEPATTARGGPGKAGSRGRFAGHSEAGGGSGDRRRAGPEKRPKSSREGSGGPQESSRDKRPLSGPDVGTPQPAGLASGAKLAAGRPFNTYPRADTDHPSRGAQGEPHDVAPNGPSAGGLAIPQSSSSSSRPPTRARGAPSPGVLGPHASEPQLAPPACTPAAPAVPGPPGPRSPQREPQRVSHEQFRAALQLVVDPGDPRSYLDNFIKIGEGSTGIVCIATVRSSGKLVAVKKMDLRKQQRRELLFNEVVIMRDYQHENVVEMYNSYLVGDELWVVMEFLEGGALTDIVTHTRMNEEQIAAVCLAVLQALSVLHAQGVIHRDIKSDSILLTHDGRVKLSDFGFCAQVSKEVPRRKSLVGTPYWMAPELISRLPYGPEVDIWSLGIMVIEMVDGEPPYFNEPPLKAMKMIRDNLPPRLKNLHKVSPSLKGFLDRLLVRDPAQRATAAELLKHPFLAKAGPPASIVPLMRQNRTR
substrate (in vitro kinase assay) [1]: yes | substrate (in vitro kinase assay) [2]: yes | substrate (in vitro kinase assay), note [2]: Equally well as MBB | Km [3]: High Km for PAK5 (1-10 µM) | substrate (in vitro kinase assay) [3]: yes | substrate (in vitro kinase assay) [4]: no | substrate (in vitro kinase assay) [5]: poor | substrate (in vitro kinase assay) [6]: poor | substrate (in vitro kinase assay) [7]: poor | substrate (in vitro kinase assay) [8]: poor | substrate (in vitro kinase assay) [9]: poor | substrate (in vitro kinase assay), note [9]: Better than 7
